Experimental data as given in PMC8333356 (Nature Communications, 2021).

B1: Nb105 (VHH)
VHH: VQLVESGGGLVQAGGSLRLSCAVSGRTFSTYGMAWFRQAPGKERDFVATITRSGETTLYADSVKGRFTISRDNAKNTVYLQMNSLKIEDTAVYYCAVRRDSSWGYSRDLFEYDYWGQGTQVTVS
notes: Cloned in pET-21b(+); also called class II Nb; source: E. coli BL21 (DE3), purified (cobalt resin, Superdex 75)
B2: Nb36 (VHH)
VHH: VQLVESGGGLVQAGGSLTLTCAASGRTFSSETMDMGWFRQAPGKEREFVAADSWNDGSTYYADSVKGRFTISRDSAKNTLYLQMNSLKPEDTAVYYCAAETYSIYEKDDSWGYWGQGTQVTVS
notes: Cloned in pET-21b(+); also called class III Nb; source: E. coli BL21 (DE3), purified (cobalt resin, Superdex 75)

Target: receptor binding domain (RBD) of SARS-CoV-2 spike (SARS-CoV-2 Wuhan-Hu-1, UniProt P0DTC2)
Assay: cryo-EM structure
Conditions: both partners purified

Binder | binding result
B1 | binds
B2 | binds
